Assay results taken from publication PMC9037526.

Biological target: Vip3Aa protoxin (proVip3Aa, without Flag tag) (Bacillus thuringiensis)
Experiment: MST; labeled proVip3Aa (333 nM) or labeled actVip3Aa (216 nM) kept constant, GST-PHB2 titrated from 0.2 nM to 7 μM; PBS pH 7.5; Monolith NT.115 Pico

## GST-PHB2 (prohibitin 2 of Spodoptera frugiperda fused to glutathione-S-transferase) (natural protein)
  Kd: 45.9 nM
